Test results from PMC3285612, “Simukunin from the Salivary Glands of the Black Fly Simulium vittatum Inhibits Enzymes That Regulate Clotting and Inflammatory Responses” (PLoS ONE, 2012).

What was measured:
[1] = target: T1, cathepsin G (human, UniProt P08311 21-244); assay: cell-based or functional assay
T1 sequence (looked up): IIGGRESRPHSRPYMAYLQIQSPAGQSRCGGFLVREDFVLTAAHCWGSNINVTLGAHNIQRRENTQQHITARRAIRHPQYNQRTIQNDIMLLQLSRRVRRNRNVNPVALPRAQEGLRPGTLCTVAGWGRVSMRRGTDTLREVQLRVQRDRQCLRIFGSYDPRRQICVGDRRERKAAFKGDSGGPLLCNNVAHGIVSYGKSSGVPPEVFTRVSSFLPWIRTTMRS

[2] = target: plasmin (human); assay: cell-based or functional assay
[3] = target: kallikrein (human, UniProt P03952 20-638); assay: cell-based or functional assay
[4] = target: skin β-tryptase (human, UniProt Q15661 19-275); assay: cell-based or functional assay
[5] = target: trypsin (sequencing grade) (human, UniProt P07477 16-247); assay: cell-based or functional assay
[6] = target: activated coagulation factor XI (FXIa) (human); assay: cell-based or functional assay
[7] = target: T2, elastase (purified from human sputum) (human, UniProt P08246 30-267); assay: cell-based or functional assay
T2 sequence (looked up): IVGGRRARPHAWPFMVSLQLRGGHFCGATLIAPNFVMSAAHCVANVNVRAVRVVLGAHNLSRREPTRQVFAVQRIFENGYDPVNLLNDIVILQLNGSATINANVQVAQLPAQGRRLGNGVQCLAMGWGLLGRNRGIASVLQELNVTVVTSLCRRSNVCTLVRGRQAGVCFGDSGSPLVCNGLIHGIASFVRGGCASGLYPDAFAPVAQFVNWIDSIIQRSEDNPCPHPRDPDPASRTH

[8] = target: T2, elastase (purified from human sputum); assay: SPR; kinetics: rSimukunin immobilised on a CM5 chip by amine coupling (475.3 RU); FXa 3.1-50 nM or elastase 0.45-3.75 nM injected for 180 s at 30 µl/minute, 25°C; HBS-P (10 mM Hepes pH 7.4, 150 mM NaCl, 0.005% P20); global fit to a 1:1 Langmuir model; conditions: both partners purified
[9] = target: T1, cathepsin G; assay: enzyme inhibition assay (Ki from IC50 by Cheng and Prusoff); rSimukunin titrated against a constant concentration of enzyme, pre-incubated 5 min, fluorogenic peptidyl substrate 250 µM, 30°C; Ki calculated from the IC50 and the substrate's Km; estimated; conditions: both partners purified
[10] = target: T2, elastase (purified from human sputum); assay: as above; conditions: both partners purified

Sequence of skin β-tryptase (Q15661 19-275): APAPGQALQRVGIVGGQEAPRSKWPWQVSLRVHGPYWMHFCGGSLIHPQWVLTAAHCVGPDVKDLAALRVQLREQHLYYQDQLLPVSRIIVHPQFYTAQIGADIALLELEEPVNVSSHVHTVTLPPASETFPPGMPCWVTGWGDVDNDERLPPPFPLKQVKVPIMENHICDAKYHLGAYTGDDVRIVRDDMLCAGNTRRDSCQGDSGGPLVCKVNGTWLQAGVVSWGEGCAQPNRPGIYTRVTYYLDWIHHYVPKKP
Sequence of kallikrein (P03952 20-638): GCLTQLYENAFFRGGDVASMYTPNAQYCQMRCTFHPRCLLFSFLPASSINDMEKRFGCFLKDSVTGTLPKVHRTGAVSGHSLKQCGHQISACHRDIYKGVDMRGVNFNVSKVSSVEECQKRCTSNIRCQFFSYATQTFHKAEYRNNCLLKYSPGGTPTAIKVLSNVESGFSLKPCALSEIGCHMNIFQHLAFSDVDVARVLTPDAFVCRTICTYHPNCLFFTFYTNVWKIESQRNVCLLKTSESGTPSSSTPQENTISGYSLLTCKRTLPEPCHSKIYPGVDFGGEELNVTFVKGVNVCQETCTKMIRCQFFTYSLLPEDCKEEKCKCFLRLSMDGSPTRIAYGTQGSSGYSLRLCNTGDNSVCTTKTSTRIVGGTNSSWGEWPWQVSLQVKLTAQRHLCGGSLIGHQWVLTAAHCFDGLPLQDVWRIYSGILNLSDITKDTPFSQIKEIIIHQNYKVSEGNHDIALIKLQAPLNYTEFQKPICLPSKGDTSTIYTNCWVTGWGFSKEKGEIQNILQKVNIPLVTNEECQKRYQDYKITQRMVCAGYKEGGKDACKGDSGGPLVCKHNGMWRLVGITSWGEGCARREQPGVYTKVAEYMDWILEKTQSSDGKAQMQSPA
Sequence of trypsin (sequencing grade) (P07477 16-247): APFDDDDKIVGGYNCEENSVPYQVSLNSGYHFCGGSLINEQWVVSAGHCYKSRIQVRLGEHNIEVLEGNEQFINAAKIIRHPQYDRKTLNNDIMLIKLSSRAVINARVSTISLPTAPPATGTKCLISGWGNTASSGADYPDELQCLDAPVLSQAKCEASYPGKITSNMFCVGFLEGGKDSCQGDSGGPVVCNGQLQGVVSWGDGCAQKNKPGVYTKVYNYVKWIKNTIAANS
Sequence of plasmin (human) (P00747 20-580, chain 1 of 2): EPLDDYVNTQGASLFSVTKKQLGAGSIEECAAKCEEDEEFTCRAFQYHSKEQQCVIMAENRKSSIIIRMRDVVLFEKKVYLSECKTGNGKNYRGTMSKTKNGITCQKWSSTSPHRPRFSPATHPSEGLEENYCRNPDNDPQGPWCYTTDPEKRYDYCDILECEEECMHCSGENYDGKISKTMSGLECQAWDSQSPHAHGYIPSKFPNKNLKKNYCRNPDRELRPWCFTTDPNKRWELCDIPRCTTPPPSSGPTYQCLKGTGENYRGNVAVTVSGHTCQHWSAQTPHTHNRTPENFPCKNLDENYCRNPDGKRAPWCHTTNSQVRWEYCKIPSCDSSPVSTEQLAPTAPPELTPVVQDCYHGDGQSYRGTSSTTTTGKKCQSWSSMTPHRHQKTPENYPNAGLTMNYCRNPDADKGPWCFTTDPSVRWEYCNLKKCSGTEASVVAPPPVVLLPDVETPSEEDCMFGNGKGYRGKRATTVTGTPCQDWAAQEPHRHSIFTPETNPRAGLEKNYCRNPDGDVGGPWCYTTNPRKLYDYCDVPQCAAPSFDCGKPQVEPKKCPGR
Sequence of plasmin (human) (P00747 581-810, chain 2 of 2): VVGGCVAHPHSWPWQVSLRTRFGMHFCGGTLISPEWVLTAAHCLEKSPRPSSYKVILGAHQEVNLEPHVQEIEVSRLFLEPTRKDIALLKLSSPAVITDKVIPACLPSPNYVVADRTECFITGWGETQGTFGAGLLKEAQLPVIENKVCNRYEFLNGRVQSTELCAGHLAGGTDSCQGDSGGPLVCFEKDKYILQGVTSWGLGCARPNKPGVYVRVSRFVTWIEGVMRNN
Sequence of activated coagulation factor XI (FXIa) (human) (chain, as listed by the source, chain 1 of 2): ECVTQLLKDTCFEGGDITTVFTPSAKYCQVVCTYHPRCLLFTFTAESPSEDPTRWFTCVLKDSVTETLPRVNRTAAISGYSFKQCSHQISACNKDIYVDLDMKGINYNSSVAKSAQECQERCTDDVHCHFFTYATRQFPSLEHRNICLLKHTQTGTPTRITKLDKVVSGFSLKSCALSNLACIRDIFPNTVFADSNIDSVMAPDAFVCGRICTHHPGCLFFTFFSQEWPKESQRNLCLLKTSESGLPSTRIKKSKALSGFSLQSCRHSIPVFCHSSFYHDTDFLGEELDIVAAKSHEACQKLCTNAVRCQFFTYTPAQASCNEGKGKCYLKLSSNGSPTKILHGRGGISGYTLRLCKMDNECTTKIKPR
Sequence of activated coagulation factor XI (FXIa) (human) (chain, as listed by the source, chain 2 of 2): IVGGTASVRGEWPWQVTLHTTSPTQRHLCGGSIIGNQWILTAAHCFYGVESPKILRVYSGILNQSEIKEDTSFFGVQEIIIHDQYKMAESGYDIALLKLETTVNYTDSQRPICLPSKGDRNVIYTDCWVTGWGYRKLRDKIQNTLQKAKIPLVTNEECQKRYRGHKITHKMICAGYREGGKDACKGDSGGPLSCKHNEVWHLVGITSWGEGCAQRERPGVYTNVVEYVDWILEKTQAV

B1: recombinant Simukunin (rSV-66) (natural protein, Simulium vittatum, UniProt B5M0W4 20-102, looked up)
chain: QENVCNLPVDEGVCRALFKRFYYEPATDSCKEFYYGGCEGNGNRFKSKKECILKCQKNKQLIKTRKRKPKKTTKPPIPIISLD
notes: SV-66 (Simukunin), Kunitz family salivary protein of the black fly Simulium vittatum; full-length ORF without signal peptide was cloned; numbers count on: the mature protein; pET-30 Ek/LIC vector; The purified protein ran as a doublet; also called rSimukunin; WT rSimukunin; source: E. coli BL21 (DE3), purified (Ni-NTA, RP-HPLC)
IC50 of inhibition of enzyme activity (fluorogenic peptidyl substrate, 250 µM); cathepsin G 6.7 nM [1]: 217 nM
IC50 of inhibition of enzyme activity (fluorogenic peptidyl substrate, 250 µM); plasmin 0.2 nM [2]: 32.2 nM
IC50 of inhibition of enzyme activity (fluorogenic peptidyl substrate, 250 µM); kallikrein 0.08 nM [3]: 91.8 nM
IC50 of inhibition of enzyme activity (fluorogenic peptidyl substrate, 250 µM); β-tryptase 0.01 nM [4]: 66.8 nM
IC50 of inhibition of enzyme activity (fluorogenic peptidyl substrate, 250 µM); trypsin 0.1 nM [5]: 379 nM
IC50 of inhibition of enzyme activity (fluorogenic peptidyl substrate, 250 µM); Factor XIa 0.06 nM [6]: 56.7 nM
IC50 of inhibition of enzyme activity (fluorogenic peptidyl substrate, 250 µM); elastase 0.18 nM [7]: 4.9 nM
Kd [8]: 0.4 nM
koff [8]: 0.0173 s⁻¹
kon [8]: 4.3e+07 M⁻¹ s⁻¹
Ki [9]: 100 nM
Ki [10]: ~0.65 nM
